Measurements reported in article PMC10805311, “Pseudomonas aeruginosa two-component system CprRS regulates HigBA expression and bacterial cytotoxicity in response to LL-37 stress” (PLOS Pathogens, 2024).
Substitutions are numbered along the chain they refer to.

Experiments:
[1] = tested on: CprR / higB DNA fragments; assay: EMSA, CprR binding to higB promoter DNA; parameters: species or system P. aeruginosa; settings: 4°C 30 min
Description: (§1) The gene promoters were obtained by PCR. The CprR and DNA fragment were mixed in different ratios (total 10 μL buffer, 25 mM Tris–HCl pH 7.5, 150 mM NaCl, 1 mM MgCl2, 2 mM KCl) and incubated at 4°C for 30 min, then the samples were analyzed by 8% polyacrylamide gel electrophoresis in 0.5 × TBE (Tris/boric acid/EDTA) buffer at 130 V for 120 min. The bands were staining with EB and visualized through BioRad imager.

[2] = tested on: CprRD53A / higB DNA fragments; assay: EMSA, CprRD53A binding to higB promoter DNA; parameters: species or system P. aeruginosa; settings: 4°C 30 min
Description: as §1

[3] = tested on: T1, CprR (Pseudomonas aeruginosa (PAO1 or PA14; strain of cloned gene not stated)), ORF:b369b159; assay: EMSA
T1 sequence: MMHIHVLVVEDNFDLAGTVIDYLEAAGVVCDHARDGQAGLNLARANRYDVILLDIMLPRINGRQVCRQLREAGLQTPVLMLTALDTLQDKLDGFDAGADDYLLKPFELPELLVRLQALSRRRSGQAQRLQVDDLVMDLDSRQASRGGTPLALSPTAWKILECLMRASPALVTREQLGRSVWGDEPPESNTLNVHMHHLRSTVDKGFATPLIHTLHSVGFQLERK

[4] = tested on: T2, CprR H214A H215A (Pseudomonas aeruginosa), ORF:b369b159; assay: EMSA
T2 sequence: T1 sequence with H215A

[5] = tested on: T3, CprR N188A N189A (Pseudomonas aeruginosa), ORF:b369b159; assay: EMSA
T3 sequence: T1 sequence with N189A

[6] = tested on: T4, CprR R198A R199A (Pseudomonas aeruginosa), ORF:b369b159; assay: EMSA
T4 sequence: T1 sequence with R199A

[7] = tested on: T5, CprR S187A S188A (Pseudomonas aeruginosa), ORF:b369b159; assay: EMSA
T5 sequence: T1 sequence with S188A

[8] = tested on: T6, CprR V192A V193A (Pseudomonas aeruginosa), ORF:b369b159; assay: EMSA
T6 sequence: T1 sequence with V193A

[9] = tested on: T7, CprR W180A W181A (Pseudomonas aeruginosa), ORF:b369b159; assay: EMSA
T7 sequence: T1 sequence with W181A

[10] = tested on: biofilms of uropathogenic E. coli; settings: cited from earlier work
Excerpt: In the field of microbiology and immunology, the interaction between host antimicrobial peptides and pathogenic bacteria has been a subject of extensive research. The success of bacterial infections depends on a delicate balance of signals exchanged between microbes and hosts. Cationic antimicrobial peptides, including defensins such as α-defensins, β-defensins, and cathelicidin LL-37, are crucial components of innate host defense against bacterial infections. Numerous studies have shown that LL-37 acts as a shield between the host and the external environment, preventing bact ...

Compound: CC(=O)OP(=O)(O)O [acetyl phosphate (ACP), acetyl phosphate]
- effect of acetyl phosphate on DNA binding of CprR [1]: enhanced the binding of CprR to its target higB DNA fragments
- effect of acetyl phosphate on DNA binding of CprR ([1]; listed as AcP): enhanced the DNA-binding ability of CprR
- effect of acetyl phosphate on DNA binding of the D53A mutant [2]: unable to exhibit this enhanced binding

Compound: CTGGTCGAGTCGATGATGGTGGCCGGGCGCTGAGGCCGGGTTTCCCTCTATAAAACGCCAGCGCTCGTCGCTGGCGTTTTCGTTTCCGCCTGTTCAATTGTCCGCCTCTATGGGGACCATGCTTGTCTTTTGCCAAGAAGAAAACAATAATCAATCTCATTATCGTCTGGTGAGGTTGCC (double strand) [higB promoter (PhigB)]
- binding [3]: binds
- binding [4]: binds more weakly
- binding [5]: binds more weakly
- binding [6]: binds more weakly
- binding [7]: binds more weakly
- binding [8]: binds more weakly
- binding [9]: binds more weakly

Compound: Cecropin A
- biofilm disruption [10]: disrupt biofilms of uropathogenic E. coli
